T1: Bzz1-2, P38822
T1 sequence (P38822 568-633, looked up): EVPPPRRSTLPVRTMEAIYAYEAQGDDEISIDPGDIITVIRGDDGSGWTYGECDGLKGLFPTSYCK

T2: Sla1-3, P32790
T2 sequence (P32790 344-424, looked up): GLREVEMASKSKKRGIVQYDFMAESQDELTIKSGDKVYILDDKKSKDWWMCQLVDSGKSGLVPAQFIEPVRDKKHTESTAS

T3: Cdc25, P04821
T3 sequence (P04821 50-136, looked up): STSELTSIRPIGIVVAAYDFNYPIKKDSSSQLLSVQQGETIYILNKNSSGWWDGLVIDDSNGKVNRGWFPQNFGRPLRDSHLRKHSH

T4: Lsb3, P43603
T4 sequence (P43603 385-451, looked up): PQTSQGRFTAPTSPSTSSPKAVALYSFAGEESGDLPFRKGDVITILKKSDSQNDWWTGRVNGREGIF

T5: Fus1, P11710
T5 sequence (P11710 432-512, looked up): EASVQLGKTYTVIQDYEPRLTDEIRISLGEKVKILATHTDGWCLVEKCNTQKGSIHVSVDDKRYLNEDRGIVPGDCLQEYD

T6: Sla1-2, P32790
T6 sequence (P32790 60-140, looked up): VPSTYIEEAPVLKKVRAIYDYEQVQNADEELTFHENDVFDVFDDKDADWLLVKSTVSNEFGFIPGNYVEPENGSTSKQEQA

T7: Bzz1-1, P38822
T7 sequence (P38822 478-572, looked up): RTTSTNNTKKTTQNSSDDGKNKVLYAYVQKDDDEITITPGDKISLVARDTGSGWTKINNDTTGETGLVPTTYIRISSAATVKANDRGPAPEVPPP

T8: Hof1, Q05080
T8 sequence (Q05080 590-669, looked up): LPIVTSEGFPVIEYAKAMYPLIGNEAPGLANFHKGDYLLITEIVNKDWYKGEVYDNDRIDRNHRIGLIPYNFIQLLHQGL

T9: Pin3, Q06449
T9 sequence (Q06449 53-122, looked up): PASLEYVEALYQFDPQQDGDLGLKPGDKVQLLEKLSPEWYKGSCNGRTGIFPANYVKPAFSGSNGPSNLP

T10: Myo5, Q04439
T10 sequence (Q04439 1072-1160, looked up): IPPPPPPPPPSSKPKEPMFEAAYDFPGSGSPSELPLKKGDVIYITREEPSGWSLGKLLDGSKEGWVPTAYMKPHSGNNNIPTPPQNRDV

T11: Boi1, P38041
T11 sequence (P38041 1-86, looked up): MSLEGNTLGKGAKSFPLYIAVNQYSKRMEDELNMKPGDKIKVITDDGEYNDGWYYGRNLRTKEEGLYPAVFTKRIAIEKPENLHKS

T12: Lsb4, P32793
T12 sequence (P32793 402-468, looked up): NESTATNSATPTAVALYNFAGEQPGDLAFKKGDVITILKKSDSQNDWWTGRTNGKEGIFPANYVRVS

T13: Pex13, P80667
T13 sequence (P80667 295-386, looked up): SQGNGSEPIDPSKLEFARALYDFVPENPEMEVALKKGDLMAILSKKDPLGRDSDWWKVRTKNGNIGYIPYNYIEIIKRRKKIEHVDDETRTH

T14: Abp1, P15891
T14 sequence (P15891 535-592, looked up): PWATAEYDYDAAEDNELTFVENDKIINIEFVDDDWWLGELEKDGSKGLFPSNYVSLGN

T15: Lsb1, P53281
T15 sequence (P53281 45-122, looked up): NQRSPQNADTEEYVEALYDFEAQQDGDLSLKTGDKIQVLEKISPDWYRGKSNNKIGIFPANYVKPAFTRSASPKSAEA

T16: Bud14, P27637
T16 sequence (P27637 247-328, looked up): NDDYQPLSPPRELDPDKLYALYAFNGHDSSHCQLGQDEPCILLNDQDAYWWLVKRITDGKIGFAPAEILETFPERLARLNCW

T17: Nbp2, Q12163
T17 sequence (Q12163 103-180, looked up): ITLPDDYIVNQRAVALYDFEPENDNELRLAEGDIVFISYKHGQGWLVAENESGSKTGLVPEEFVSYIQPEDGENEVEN

T18: Cyk3, Q07533
T18 sequence (Q07533 1-83, looked up): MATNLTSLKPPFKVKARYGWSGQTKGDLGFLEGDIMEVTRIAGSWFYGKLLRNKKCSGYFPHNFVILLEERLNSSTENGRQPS

T19: Boi2, P39969
T19 sequence (P39969 32-116, looked up): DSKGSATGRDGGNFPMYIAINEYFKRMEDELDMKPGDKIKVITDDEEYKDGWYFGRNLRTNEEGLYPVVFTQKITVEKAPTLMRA

T20: Bbc1, P47068
T20 sequence (P47068 1-78, looked up): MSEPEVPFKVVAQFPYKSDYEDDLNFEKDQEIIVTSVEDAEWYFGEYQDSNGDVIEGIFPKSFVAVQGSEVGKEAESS

T21: Hse1, P38753
T21 sequence (P38753 208-285, looked up): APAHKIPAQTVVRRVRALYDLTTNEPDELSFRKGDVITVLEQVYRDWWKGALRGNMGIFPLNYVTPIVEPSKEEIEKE


Each binder was assayed against T1, Bzz1-2, P38822 (assay: SPOT array). Details: median of control spots 4538.
KRRAPPPVPKKPSSR gave an SPOT intensity of 4500. For PKRRAPPPVPKKPSS, the SPOT intensity was 3420.

Each binder was assayed against T2, Sla1-3, P32790 (assay: SPOT array). Details: median of control spots 5475.
With KRRAPPPVPKKPSSR the SPOT intensity was 4640. Work on PKRRAPPPVPKKPSS yielded an SPOT intensity of 3500.

What follows are binders tested against T3, Cdc25, P04821 (assay: SPOT array). Details: median of control spots 969.
KRRAPPPVPKKPSSR gave an SPOT intensity of 9. PKRRAPPPVPKKPSS showed an SPOT intensity of 3.

What follows are binders tested against T4, Lsb3, P43603 (assay: SPOT array). Details: median of control spots 406.
Work on KRRAPPPVPKKPSSR yielded an SPOT intensity of 389. PKRRAPPPVPKKPSS gave an SPOT intensity of 346.

Each binder was assayed against GST (assay: SPOT array). Details: median of control spots 978.
KRRAPPPVPKKPSSR gave an SPOT intensity of 3. PKRRAPPPVPKKPSS gave an SPOT intensity of 2.

The binders below were run against T5, Fus1, P11710 (assay: SPOT array). Details: median of control spots 1200.
In the case of KRRAPPPVPKKPSSR, the SPOT intensity is reported as 10. Binder PKRRAPPPVPKKPSS has an SPOT intensity of 6.

Each binder was assayed against Rvs167, P39743 (assay: SPOT array). Details: median of control spots 2707.
Rvs167, P39743, sequence (P39743 419-482): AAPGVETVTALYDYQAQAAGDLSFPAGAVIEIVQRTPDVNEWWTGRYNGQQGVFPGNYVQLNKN
In the case of KRRAPPPVPKKPSSR, the SPOT intensity is reported as 165. PKRRAPPPVPKKPSS was tested, and the SPOT intensity was 44.

Each binder was assayed against T6, Sla1-2, P32790 (assay: SPOT array). Details: median of control spots 712.
Binder KRRAPPPVPKKPSSR has an SPOT intensity of 0. PKRRAPPPVPKKPSS gave an SPOT intensity of 0.

Each binder was assayed against Myo3, P36006 (assay: SPOT array). Details: median of control spots 468.
For KRRAPPPVPKKPSSR, the SPOT intensity was 454. For PKRRAPPPVPKKPSS, the SPOT intensity was 342.

What follows are binders tested against T7, Bzz1-1, P38822 (assay: SPOT array). Details: median of control spots 4446.
In the case of KRRAPPPVPKKPSSR, the SPOT intensity is reported as 1320. Work on PKRRAPPPVPKKPSS yielded an SPOT intensity of 650.

Each binder was assayed against Sho1, P40073 (assay: SPOT array). Details: median of control spots 1148.
Sho1, P40073, sequence (P40073 287-367): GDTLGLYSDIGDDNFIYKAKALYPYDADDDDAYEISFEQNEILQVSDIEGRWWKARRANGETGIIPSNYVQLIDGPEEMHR
Binder KRRAPPPVPKKPSSR has an SPOT intensity of 370. PKRRAPPPVPKKPSS showed an SPOT intensity of 399.

What follows are binders tested against T8, Hof1, Q05080 (assay: SPOT array). Details: median of control spots 4086.
With KRRAPPPVPKKPSSR the SPOT intensity was 6. With PKRRAPPPVPKKPSS the SPOT intensity was 8.

The binders below were run against T9, Pin3, Q06449 (assay: SPOT array). Details: median of control spots 2171.
KRRAPPPVPKKPSSR gave an SPOT intensity of 14. For PKRRAPPPVPKKPSS, the SPOT intensity was 11.

What follows are binders tested against T10, Myo5, Q04439 (assay: SPOT array). Details: median of control spots 471.
In the case of KRRAPPPVPKKPSSR, the SPOT intensity is reported as 144. For PKRRAPPPVPKKPSS, the SPOT intensity was 119.

Each binder was assayed against T11, Boi1, P38041 (assay: SPOT array). Details: median of control spots 1162.
Work on KRRAPPPVPKKPSSR yielded an SPOT intensity of 2. PKRRAPPPVPKKPSS showed an SPOT intensity of 2.

Each binder was assayed against Bem1-2, P29366 (assay: SPOT array). Details: median of control spots 4347.
Bem1-2, P29366, sequence (P29366 139-227): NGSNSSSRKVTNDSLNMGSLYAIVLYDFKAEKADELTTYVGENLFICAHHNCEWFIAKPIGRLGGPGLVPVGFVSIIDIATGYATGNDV
Binder KRRAPPPVPKKPSSR has an SPOT intensity of 961. PKRRAPPPVPKKPSS was tested, and the SPOT intensity was 389.

What follows are binders tested against T12, Lsb4, P32793 (assay: SPOT array). Details: median of control spots 397.
Work on KRRAPPPVPKKPSSR yielded an SPOT intensity of 150. Work on PKRRAPPPVPKKPSS yielded an SPOT intensity of 182.

What follows are binders tested against T13, Pex13, P80667 (assay: SPOT array). Details: median of control spots 1341.
KRRAPPPVPKKPSSR was tested, and the SPOT intensity was 47. PKRRAPPPVPKKPSS gave an SPOT intensity of 41.

Each binder was assayed against T14, Abp1, P15891 (assay: SPOT array). Details: median of control spots 935.
In the case of KRRAPPPVPKKPSSR, the SPOT intensity is reported as 626. With PKRRAPPPVPKKPSS the SPOT intensity was 648.

What follows are binders tested against T15, Lsb1, P53281 (assay: SPOT array). Details: median of control spots 388.
With KRRAPPPVPKKPSSR the SPOT intensity was 1850. Work on PKRRAPPPVPKKPSS yielded an SPOT intensity of 1740.

What follows are binders tested against T16, Bud14, P27637 (assay: SPOT array). Details: median of control spots 956.
KRRAPPPVPKKPSSR showed an SPOT intensity of 9. With PKRRAPPPVPKKPSS the SPOT intensity was 1.

These binders were tested against Bem1-1, P29366 (assay: SPOT array). Details: median of control spots 4282.
Bem1-1, P29366, sequence (P29366 55-141): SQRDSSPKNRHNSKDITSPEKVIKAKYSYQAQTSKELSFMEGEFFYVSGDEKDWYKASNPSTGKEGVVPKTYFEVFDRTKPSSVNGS
Work on KRRAPPPVPKKPSSR yielded an SPOT intensity of 1. In the case of PKRRAPPPVPKKPSS, the SPOT intensity is reported as 0.

These binders were tested against T17, Nbp2, Q12163 (assay: SPOT array). Details: median of control spots 357.
KRRAPPPVPKKPSSR showed an SPOT intensity of 751. For PKRRAPPPVPKKPSS, the SPOT intensity was 650.

These binders were tested against T18, Cyk3, Q07533 (assay: SPOT array). Details: median of control spots 1451.
Work on KRRAPPPVPKKPSSR yielded an SPOT intensity of 4. For PKRRAPPPVPKKPSS, the SPOT intensity was 1.

Each binder was assayed against T19, Boi2, P39969 (assay: SPOT array). Details: median of control spots 1161.
For KRRAPPPVPKKPSSR, the SPOT intensity was 1. PKRRAPPPVPKKPSS gave an SPOT intensity of 1.

The binders below were run against T20, Bbc1, P47068 (assay: SPOT array). Details: median of control spots 796.
KRRAPPPVPKKPSSR showed an SPOT intensity of 233. For PKRRAPPPVPKKPSS, the SPOT intensity was 354.

Each binder was assayed against T21, Hse1, P38753 (assay: SPOT array). Details: median of control spots 1727.
Binder KRRAPPPVPKKPSSR has an SPOT intensity of 412. In the case of PKRRAPPPVPKKPSS, the SPOT intensity is reported as 368.

— article PMC2756588
